Experiments:
PAPSS2 [1] = test: PAPSS2 enzyme activity, coupled radiochemical assay (PAPS generation then SULT1E1-catalyzed sulfation of [3H]estradiol) with COS-1 expressed recombinant allozymes; assay type: biochemical, human; settings: His-tagged recombinant allozyme, loxP-modified p91023(b) vector, COS-1 cells, corrected for transfection efficiency
Excerpt: Variant alleles of the four non-synonymous PAPSS2 cSNPs observed during the resequencing experiments were created using the QuickChange Site-Directed Mutagenesis Kit (Stratagene, La Jolla, Calif.), with wild type PAPSS2 cDNA in pUni as template. The sequence of the pUni insert was confirmed by completely sequencing both strands before recombination with the loxP-modified p91023(b) acceptor vector. pUni donor vectors that contained wild type and variant PAPSS2 cDNAs, as well as empty pUni, then were combined with the loxP-modified p91023(b) acceptor vector to generate the final expression constructs. In all cases, the fusion junctions of resultant expression constructs were sequenced to confirm that the construct was a dimer consisting of only a single donor and a single acceptor vector. These expression constructs were used to transfect COS-1 cells using TransFast™ reagent (Promega) with a 1:1 charge ratio. pSV-β-galactosidase (Promega) was co-transfected with each construct as an internal control to correct for transfection efficiency. Transfected COS-1 cells were harvested after 48 hours and were homogenized with a Polytron homogenizer (Brinkmann Instruments, Westbury, N.Y.) in 25 mM potassium phosphate buffer, pH 7.8, containing 1 mM dithiothreitol (DTT) and 1 mM EDTA. The homogenates were centrifuged at 15,000 g for 15 minutes, and the resultant supernatant preparations were used to perform enzyme assays, substrate kinetic studies and Western blot analyses. In some cases, aliquots of these cytosol preparations were stored at −80° C. prior to assay.
PAPSS2 Enzyme Activity: PAPSS2 activity was measured with a coupled radiochemical assay. See Xu et al., 2001, supra. Briefly, PAPS is generated from ATP and Na2SO4 in a PAPSS2-catalyzed reaction. The generated PAPS is then used as a substrate for the SULT1E1-catalyzed sulfate conjugation of [2,4,6,7-^3H]estradiol, a radioactively labeled sulfate acceptor substrate. The cell homogenate preparations of recombinant PAPSS2 allozymes described above were used for the activity studies without any further purification. The protein concentration of each recombinant protein preparation was determined by the dye-binding method of Bradford with bovine serum albumin (BSA) as a standard.
PAPS synthesis was catalyzed by recombinant wild-type PAPSS2 or PAPSS2 allozymes (present in the cell homogenate preparations described above) in the presence of 1 mM ATP, 16 mM Na2SO4, 1 mM MgCl2, and 2 mM DTT in 60 mM glycine-NaOH buffer, pH 8.6. Blank samples included the same quantity of COS-1 cytosol protein from cells that had been transfected with empty expression vector to make it possible to correct for endogenous activity. Reaction mixtures were incubated at 37° C. for 20 minutes, and then terminated by heating at 100° C. for 1 minute. An aliquot from this PAPS-generating reaction was then added to a second, coupled reaction containing recombinant human SULT1E1 isolated from COS-1 cells transfected with a SULT1E1 expression construct (see Aksoy et al., Biochem. Biophys. Res. Commun., 200:1621–1629 (1994)). The coupled reaction also included 27 nM [2,4,6,7-^3H]estradiol, 8 mM DTT and 1.25 mM MgCl2 in 10 mM potassium phosphate buffer, pH 6.5. The second, SULT1E1-catalyzed reactions were incubated at 37° C. for 20 minutes, and then terminated by the addition of KOH, followed by organic solvent extraction performed with chloroform. Radioactivity of the sulfate conjugated [2,4,6,7-^3H]estradiol in the aqueous phase after organic solvent extraction was then measured in a liquid scintillation counter. PAPSS activities of recombinant PAPSS2 allozymes were compared after correction for transfection efficiency by measuring the activity of cotransfected P-galactosidase. β-Galactosidase activity in the COS-1 cell preparations was measured with the β-Galactosidase Assay System (Promega) as described by the manufacturer. […]

PAPSS2 [2] = test: Substrate kinetic studies of recombinant PAPSS2 with ATP and Na2SO4; assay type: biochemical, human
Method: To estimate apparent Km values of PAPSS2 for the two reaction cosubstrates, a series of ATP (0.125–4 mM) and Na2SO4 (0.125–16 mM) concentrations were tested with the recombinant allozymes. When ATP was the varied substrate, the concentration of Na2SO4 was 4 mM, and when Na2SO4 was the varied substrate, the concentration of ATP was 1 mM. Blanks for each substrate concentration were included by assaying COS-1 cell cytosol after transfection with empty vector.
Data Analysis: Apparent Km values were calculated by using the method of Wilkinson with a computer program written by Cleland. Wilkinson, Biochem. J., 80:324–332 (1961); and Cleland, Nature, 198:[…] (1963). Statistical comparisons of data were performed by ANOVA with the StatView program, version 4.5 (Abacus Concepts, Inc., Berkeley, Calif.). Apparent Km, S50 and Vmax values for the wild-type and variant PAPSS2 allozymes were compared by the use of unpaired Student's t-test.
Alterations in amino acid sequence can alter enzyme substrate affinity and/or catalytic efficiency. Decreased activity of the Val291Met allozyme—without a significant alteration in level of enzyme protein—could have resulted from a change in substrate kinetics. Therefore, a series of ATP (0.125–4 mM) and Na2SO4 (0.125–16 mM) concentrations were used to estimate apparent Km values for recombinant wild type PAPSS2 and for the Val291Met variant allozyme. […] ATP concentrations at which 50% maximal velocity was achieved (S50 values) were 0.70 and 0.95 mM for the wild type and variant allozymes, respectively (Table 4). In both cases, the Hill coefficient was greater than 2, […]. In contrast, substrate kinetics of both allozymes for Na2SO4 conformed to Michaelis-Menten predictions (FIG. 5B). […] In summary, decreased activity for the Val1291Met variant appeared to result from an alteration in substrate kinetics, while decreased activity for the Glu10Lys allozyme, in contrast, resulted primarily from a decrease in the quantity of enzyme protein. Because the Val291Met variant was encoded by a construct that contained the most common PAPSS2 nonsynonymous cSNP, these observations could have functional implications for the sulfate conjugation of both endogenous and/or exogenous compounds.

[3] = ATP varied 0.125-4 mM, Na2SO4 4 mM, listed as Wild Type

B1: wild type: reference human PAPSS2 polypeptide (SEQ ID NO:9, GenBank AF091242), recombinantly expressed in COS-1 cells (protein, listed as Homo sapiens)
chain: MSGIKKQKTENQQKSTNVVYQAHHVSRNKRGQVVGTRGGFRGCTVWLTGLSGAGKTTISFALEEYLVSHAIPCYSLDGDNVRHGLNRNLGFSPGDREENIRRIAEVAKLFADAGLVCITSFISPFAKDRENARKIHESAGLPFFEIFVDAPLNICESRDVKGLYKRARAGEIKGFTGIDSDYEKPETPERVLKTNLSTVSDCVHQVVELLQEQNIVPYTIIKDIHELFVPENKLDHVRAEAETLPSLSITKLDLQWVQVLSEGWATPLKGFMREKEYLQVMHFDTLLDDGVINMSIPIVLPVSAEDKTRLEGCSKFVLAHGGRRVAILRDAEFYEHRKEERCSRVWGTTCTKHPHIKMVMESGDWLVGGDLQVLEKIRWNDGLDQYRLTPLELKQKCKEMNADAVFAFQLRNPVHNGHALLMQDTCRRLLERGYKHPVLLLHPLGGWTKDDDVPLDWRMKQHAAVLEEGVLDPKSTIVAIFPSPMLYAGPTEVQWHCRSRMIAGANFYIVGRDPAGMPHPETKKDLYEPTHGGKVLSMAPGLTSVEIIPFRVAAYNKAKKAMDFYDPARHNEFDFISGTRMRKLAREGENPPDGFMAPKAWKVLTDYYRSLEKN
PAPSS2 [1]
  % WT activity: 100%
PAPSS2 [2]; ATP varied 0.125-4 mM, Na2SO4 4 mM
  S50 for ATP (ATP concentration at which 50% maximal velocity was achieved): 0.70 mM
PAPSS2 [2]; [3]
  Hill coefficient, ATP: 5.4 ± 0.1
  S50 for ATP (ATP concentration at which 50% maximal velocity was achieved): 0.70 ± 0.01 mM
PAPSS2 [2]; apparent Km, Na2SO4 varied 0.125-16 mM, ATP 1 mM
  Km: 870 µM
PAPSS2 [2]; ratio, wild type = 100, ATP as varied substrate
  Vmax/S50, ATP: 100
PAPSS2 [2]; relative Vmax, wild type = 100, ATP as varied substrate
  Vmax, ATP: 100
PAPSS2 [2]; relative Vmax, wild type = 100, Na2SO4 as varied substrate
  Vmax, Na2SO4: 100
